Where a chain is given by its changes, count along the chain named.

Sequences and labels used below:
B1: M28-D12 (Fab, V domains shown)
VH: EVQLLESGGGLVQPGGSLRLSCAASGFTFSWYTMHWVRQAPGKGLEWVSVIYPSGGPTSYADSVKGRFTISRDNSKNTLYLQMNSLRAEDTATYYCARDGSGSYLGFDYWGQGTLVTVSS
VL: DIQMTQSPSSLSASVGDRVTITCRASQSIATYLNWYQQKPGRAPKLLIYAASSLQSGVPSRFVGGGSGSGTHFTLTISSLQPEDFATYYCQQSYSTRETFGQGTKVEIK
notes: HC as printed runs into CH1
B2: M76-F02 (Fab, V domains shown)
VH: EVQLLESGGGLVQPGGSLRLSCAASGFTFSLYDMNWVRQAPGKGLEWVSGISPSGGQTMYADSVKGRFTISRDNSKNTLYLQMNSLRAEDTAVYYCARQPMISAFDIWGQGTMVTVSS
VL: DIQMTQSPSSLSASVGDRVTITCRASQTIDNYLHWYQQKPGKAPKVLIHDASSLQSGVPPRFSGSGSGTDFTLTISSLQPEDFATYYCQQSYDTPQYTFGQGTKLEIK
notes: HC as printed runs into CH1
B3: M28-C03 (Fab, V domains shown)
VH: EVQLLESGGGLVQPGGSLRLSCAASGFTFSYYQMGWVRQAPGKGLEWVSSIYPSGGMTDYADSVKGRFTISRDNSKNTLYLQMNSLRAEDTAVYYCTRGSPWGDDAFDIWGQGTMVTVSS
VL: DIQMTQSPSSLSASVGDRVTITCRASQSINFYLNWYQQKPGKAPKLLIYVASSLESGVPSRFSGSASGTEFTLTISSLQPEDFATYYCLQSYSAPYTFGQGTKVEIT
notes: HC as printed runs into CH1
B4: M29-E02 (Fab, V domains shown)
VH: EVQLLESGGGLVQPGGSLRLSCAASGFTFSRYPMMWVRQAPGKGLEWVSVIYPSGGDTFYADSVKGRFTISRDNSKNTLYLQMNSLRAEDTAVYYCASGDDYLWEAAVYWGQGTLVTVSS
VL: QSVLTQPPSVSEAPRQRVTISCSGSSSNIGNNAVSWYQQLPGKAPKLLIYYDDLLPSGVSDRFSGSKSGTSASLAISGLRSEDEADYYCAAWDDSLNGFVFGTGTKVTVL
notes: HC as printed runs into CH1
B5: M29-G08 (Fab, V domains shown)
VH: EVQLLESGGGLVQPGGSLRLSCAASGFTFSYYHMWWVRQAPGKGLEWVSGISPSGGFTFYADSVKGRFTISRDNSKNTLYLQMNSLRAEDTAVYYCARDYYYDSSGYSPLGYWGQGTLVTVSS
VL: DIQMTQSPATLSASPGETVTLSCRASQNIGNDVAWYRQRPGQAPRLLIHHASTRAYGIPARLRGSGSATEFTLTITSLEPEDFAIYYCQQFYDWPAHTFALGTRLEIKR
notes: HC as printed runs into CH1
B6: M28-E11 (Fab, V domains shown)
VH: EVQLLESGGGLVQPGGSLRLSCAASGFTFSLYDMTWVRQAPGKGLEWVSGISSSGGVTIYADSVKGRFTISRDNSKNTLYLQMNSLRAEDTAVYYCARTYYYDSSGYADAFDIWGQGTMVTVSS
VL: DIQMTQSPSSVSASVGDRVTINCRASQDISNWLAWYQQKPGKAPNLLIYAASSLQTGAPSRFSGSGSGTDFTLTISSLQPEDFGTYVCQQSYSLPWTFGLGTKVEVR
notes: HC as printed runs into CH1
B7: M74-A07 (Fab, V domains shown)
VH: EVQLLESGGGLVQPGGSLRLSCAASGFTFSQYLMMWVRQAPGKGLEWVSSIYPSGGYTSYADSVKGRFTISRDNSKNTLYLQMNSLRAEDTAVYYCARVSTAVADNDYWGQGTLVTVSS
VL: DIQMTQSPSSLSASVRDRVTITCRTSQNINTYLNWYYQAPGRAPKLLIFGVSSLHRGVSSRFSGSGDGTEFTLTISSLQPEDIGTYFCQQSYSSPWTFGQGTKVEIK
notes: HC as printed runs into CH1
B8: M27-H10 (Fab, V domains shown)
VH: EVQLLESGGGLVQPGGSLRLSCAASGFTFSAYQMAWVRQAPGKGLEWVSVIYSSGGYTDYADSVKGRFTISRDNSKNTLYLQMNSLRAEDTAVYYCARHNWNDGAFDIWGQGTMVTVSS
VL: DIQMTQSPSSLSASVGDRVTITCRASQSISNYLNWYQQKPGKAPKFLIYAASSLQSGVPSRFSGSGSGTDFTLSISSLQPEDFATYYCQQSYSTPQTFGQGTKVEMK
notes: HC as printed runs into CH1
B9: M76-G06 (Fab, V domains shown)
VH: EVQLLESGGGLVQPGGSLRLSCAASGFTFSGYIMHWVRQAPGKGLEWVSWIYPSGGWTEYADSVKGRFTISRDNSKNTLYLQMNSLRAEDTAVYYCARDAPGVGAIDYWGQGTLVTVSS
VL: B8 VL with G16R, N31T, K42E, F46L, I48V, Y49F, Q96H, T102A, M106I
notes: HC as printed runs into CH1
B10: M28-F01 (Fab, V domains shown)
VH: B2 VH with L31V, D33L, N35H, Q57Y, M59Q, Q99P, P100G, M101G, I102L, S103D
VL: B8 VL with S30N, N31T, F46V, Y49H, S53T, Q55E, S74T, Q96P, M106I
notes: HC as printed runs into CH1
B11: M77-C07 (Fab, V domains shown)
VH: B9 VH with G31L, H35G, W50G, W57F, E59M, D99E, A100S, P101S, G104A, I106P
VL: B8 VL with S10T, S28N, N31S, F46L, S74T, Y87S, Q96R, M106I
notes: HC as printed runs into CH1
B12: M28-E01 (Fab, V domains shown)
VH: EVQLLESGGGLVQPGGSLRLSCAASGFTFSSYPMGWVRQAPGKGLEWVSRISSSGGMTIYADSVKGRFTISRDNSKNTLYLQMNSLRAEDTAVYYCARDDWNVGMDVWGQGTTVTVSS
VL: B8 VL with N31S, F46L, R61K, F71Y, S74T, S91T, S93T, Q96W, M106I
notes: HC as printed runs into CH1
B13: M29-G10 (Fab, V domains shown)
VH: EVQLLESGGGLVQPGGSLRLSCAASGFTFSFYKMIWVRQAPGKGLEWVSSISSSGGSTQYADSVKGRFTISRDNSKNTLYLQMNSLRAEDTAVYYCARDRVDLGYLDYWGQGTLVTVSS
VL: DIQMTQSPSSLSSSVGDSATITCRASQSISIYLNWYQQKPGKAPKILIYGASQLESGVPSRFSGSGSGTDFTLTVSGLQPEDFATYWCQQSYNVPYTFGQGTKLEIK
notes: HC as printed runs into CH1
B14: M29-C07 (Fab, V domains shown)
VH: EVQLLESGGGLVQPGGSLRLSCAASGFTFSGYDMMWVRQAPGKGLEWVSVISSSGGNTAYADSVKGRFTISRDNSKNTLYLQMNSLRAEDTAVYYCARESSGLYYFDYWGQGTLVTVSS
VL: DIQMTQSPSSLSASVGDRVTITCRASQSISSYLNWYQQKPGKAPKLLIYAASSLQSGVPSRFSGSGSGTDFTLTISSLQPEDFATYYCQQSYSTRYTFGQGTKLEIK
notes: HC as printed runs into CH1
B15: M7-B04 (Fab, V domains shown)
VH: EVQLLESGGGLVQPGGSLRLSCAASGFTFSWYSMVWVRQAPGKGLEWVSSISPSGGLTNYADSVKGRFTISRDNSKNTLYLQMNSLRAEDTAVYYCARHTAARPFYYYYMDVWGKGTTVTVSS
VL: QSALTQPASVSGSPGQSITISCTGTNSDVGNYNLVSWYQQHPGEAPKLLIYEVNKRPSGVSNRFSGSKSGNTASLTISGLQAEDEADYLCCSYAGNRNFYVFGAGTKVTVL
notes: HC as printed runs into CH1
B16: M28-F07 (Fab, V domains shown)
VH: EVQLLESGGGLVQPGGSLRLSCAASGFTFSDYTMYWVRQAPGKGLEWVSSIVPSGGHTLYADSVKGRFTISRDNSKNTLYLQMNSLRAEDTAVYYCAKDHLSSWYGGFFDYWGQGTLVTVSS
VL: DIQMTQSPSSVSASVGDRVTITCRASQGISSWLAWYQQKPGKAPKLLIYATSGLQSGVPSRFSGSGSGTDFTLTISSLQPEDFATYYCQQAKSFPLTFGGGTRVEIK
notes: HC as printed runs into CH1
B17: M6-D09 (Fab, V domains shown)
VH: EVQLLESGGGLVQPGGSLRLSCAASGFTFSFYYMVWVRQAPGKGLEWVSVIYPSGGITVYADSVKGRFTISRDNSKNTLYLQMNSLRAEDTAVYYCARDKWAVMPPYYYYAMDVWGQGTTVTVSS
VL: DIQMTQSPSSLSASVGDRVTITCRASQSIRNYLNWYQQKPGKAPNLLIYAASTLQSGVPARFSGSGSGTDFTLTISSLQPEDFATYYCQQLSGYPHTFGQGTKLEIK
notes: HC as printed runs into CH1; also called M06-D09; 559A-M0006-D09
B18: M29-D10 (Fab, V domains shown)
VH: EVQLLESGGGLVQPGGSLRLSCAASGFTFSWYPMYWVRQAPGKGLEWVSSIGSSGGPTPYADSVKGRFTISRDNSKNTLYLQMNSLRAEDTAVYYCARWADYGGSLDYWGQGTLVTVSS
VL: DIQMTQSPSSLSASVGDTVSITCRASQSITIYLNWYQHKPGKAPNLLIYGASNLHSGVPSRFSGSGSGTDFTLTISSLQPEDFATYYCQQSYDTPLTFGGGTKVEIK
notes: HC as printed runs into CH1
B19: M76-H02 (Fab, V domains shown)
VH: EVQLLESGGGLVQPGGSLRLSCAASGFTFSMYWMQWVRQAPGKGLEWVSYIYPSGGPTKYADSVKGRFTISRDNSKNTLYLQMNSLRAEDTAVYYCARPSGSYGDAFDIWGQGTMVTVSS
VL: DIQMTQSPSSLSASEGDRVTITCRASQDISVYLNWYQMKSGKAPKLLIYGGASLQSGVPARFSGSGYGTDFTLTITDLRPEDFATYYCQQSYSLPFTFGGGTKVEIK
notes: HC as printed runs into CH1
B20: M28-A01 (Fab, V domains shown)
VH: EVQLLESGGGLVQPGGSLRLSCAASGFTFSWYAMHWVRQAPGKGLEWVSGIYSSGGYTKYADSVKGRFTISRDNSKNTLYLQMNSLRAEDTAVYYCARDLSNGDDVFDIWGQGTMVTVSS
VL: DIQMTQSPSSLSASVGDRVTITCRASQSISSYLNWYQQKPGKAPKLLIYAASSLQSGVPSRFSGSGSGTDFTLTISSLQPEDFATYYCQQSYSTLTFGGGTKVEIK
notes: HC as printed runs into CH1
B21: M77-H04 (Fab, V domains shown)
VH: EVQLLESGGGLVQPGGSLRLSCAASGFTFSYYTMIWVRQAPGKGLEWVSGIRSSGGGTRYADSVKGRFTISRDNSKNTLYLQMNSLRAEDTAVYYCAKDGSRYSYGSIYYYYGMDAWGQGTTVTVSS
VL: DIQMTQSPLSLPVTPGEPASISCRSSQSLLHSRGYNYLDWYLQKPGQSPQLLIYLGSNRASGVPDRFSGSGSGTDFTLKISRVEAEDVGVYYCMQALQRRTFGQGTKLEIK
notes: HC as printed runs into CH1
B22: M76-G02 (Fab, V domains shown)
VH: EVQLLESGGGLVQPGGSLRLSCAASGFTFSLYAMWWVRQAPGKGLEWVSYISSSGGFTSYADSVKGRFTISRDNSKNTLYLQMNSLRAEDTAVYYCARYRVGVAATDYWGQGTLVTVSS
VL: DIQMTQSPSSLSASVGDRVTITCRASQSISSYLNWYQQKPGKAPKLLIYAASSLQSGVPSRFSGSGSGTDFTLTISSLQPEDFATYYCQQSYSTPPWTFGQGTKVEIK
notes: HC as printed runs into CH1

The target in this assay is T1, human plasma kallikrein (human, UniProt P03952 20-390; P03952 391-638).
T1 construct: also called pKal; Human pKal
T1 sequence (P03952 20-390, chain 1 of 2): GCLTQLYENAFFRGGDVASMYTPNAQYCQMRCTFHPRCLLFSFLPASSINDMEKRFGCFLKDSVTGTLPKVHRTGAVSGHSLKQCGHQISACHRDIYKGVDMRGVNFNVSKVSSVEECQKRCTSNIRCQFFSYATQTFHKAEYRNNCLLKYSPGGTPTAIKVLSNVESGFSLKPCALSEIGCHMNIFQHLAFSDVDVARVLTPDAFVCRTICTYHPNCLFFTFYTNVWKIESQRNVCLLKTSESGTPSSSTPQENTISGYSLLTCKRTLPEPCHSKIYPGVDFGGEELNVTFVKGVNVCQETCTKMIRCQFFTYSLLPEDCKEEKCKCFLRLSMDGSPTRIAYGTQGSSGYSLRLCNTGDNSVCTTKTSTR
T1 sequence (P03952 391-638, chain 2 of 2): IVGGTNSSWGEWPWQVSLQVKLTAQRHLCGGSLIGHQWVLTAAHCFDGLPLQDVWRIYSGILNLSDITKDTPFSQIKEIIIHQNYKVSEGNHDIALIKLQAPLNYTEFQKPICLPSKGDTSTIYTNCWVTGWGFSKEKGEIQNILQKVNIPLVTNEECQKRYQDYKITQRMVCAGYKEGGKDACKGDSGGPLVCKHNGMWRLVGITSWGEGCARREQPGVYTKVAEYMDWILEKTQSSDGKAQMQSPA
Description: ELISA, biotinylated pKal signal over streptavidin background. The source says: Abbreviations used: “T/B” is the ELISA signal obtained using of the “target” (biotinylated plasma kallikrein) divided by the ELISA signal of the “background” (streptavidin); both of which were coated on microtiter plates, “nd” is not determined. The symbol “q” refers to the amber suppressible stop codon (TAG), which is translated as glutamine (Q) in strains of E. coli such as the TG1 cells that were used to express the Fab fragments.
A general note: ELISA stands for enzyme-linked immunosorbent assay.
On to B1, for which the “ELISA (T/B)” value stood at 41.6 T/B.

As for B2, the “ELISA (T/B)” value worked out at 6.4 T/B.

As to B3, the “ELISA (T/B)” value was 2.2 T/B.

Consider B4, for which the “ELISA (T/B)” value came to 2 T/B.

As to B5, the “ELISA (T/B)” value came to 40.4 T/B.

Turning to B6, the “ELISA (T/B)” value came out at 29.3 T/B.

Regarding B7, the “ELISA (T/B)” value was 8.6 T/B.

In the case of B8, the “ELISA (T/B)” value came out at 12.4 T/B.

For the molecule B9, the “ELISA (T/B)” value is 11.8 T/B.

On to B10, for which the “ELISA (T/B)” value was determined as 1.5 T/B.

As to B11, the “ELISA (T/B)” value was found to be 16.1 T/B.

As to B12, the “ELISA (T/B)” value worked out at 41 T/B.

With B13, the “ELISA (T/B)” value was 16.4 T/B.

In the case of B14, the “ELISA (T/B)” value is 5.2 T/B.

With B15, the “ELISA (T/B)” value is 4.1 T/B.

Take B16: the “ELISA (T/B)” value came to 33 T/B.

In the case of B17, the “ELISA (T/B)” value turned out to be 39.9 T/B.

For B18, the “ELISA (T/B)” value is 23.6 T/B.

For the molecule B19, the “ELISA (T/B)” value is 13.4 T/B.

As to B20, the “ELISA (T/B)” value worked out at 19 T/B.

Turning to B21, the “ELISA (T/B)” value came out at 7.6 T/B.

For the molecule B22, the “ELISA (T/B)” value stood at 10.3 T/B.

The values above are taken from patent publication US20260184815A1 (published 2026).
